In the experiment the target is T1, I-A(b) MHC II molecule (;mouse, UniProt P14434 24-218; P14483 28-226).
T1 construct: Custom-prepared PE-labeled tetramer
T1 sequence (MHC II alpha): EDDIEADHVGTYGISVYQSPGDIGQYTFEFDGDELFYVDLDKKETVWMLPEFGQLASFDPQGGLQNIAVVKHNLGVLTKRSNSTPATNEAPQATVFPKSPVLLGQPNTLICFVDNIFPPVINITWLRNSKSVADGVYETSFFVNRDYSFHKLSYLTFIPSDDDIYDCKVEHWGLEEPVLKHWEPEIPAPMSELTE
T1 sequence (MHC II beta): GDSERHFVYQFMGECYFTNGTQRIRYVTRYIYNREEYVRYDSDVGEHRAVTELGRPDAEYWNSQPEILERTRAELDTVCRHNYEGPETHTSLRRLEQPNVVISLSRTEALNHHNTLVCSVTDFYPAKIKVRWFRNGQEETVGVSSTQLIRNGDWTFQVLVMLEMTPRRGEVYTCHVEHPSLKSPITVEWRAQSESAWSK
The experiment is described as follows: peptide binding to MHC II during preparation of I-A(b) tetramers; method not described.

Here are results for one molecule from patent US20180199611A1 (UNIVERSITY OF FLORIDA RESEARCH FOUNDATION, published 2018).

B1: DlaT 245-259 peptide (VAPPAPVAPSAPVAA) (peptide)
peptide: VAPPAPVAPSAPVAA
notes: Synthetic 15-mer; It was loaded in a custom PE-labeled I-A(b) tetramer; also called Tetramer DlaT^245 peptide; pep of dihydrolipoamide acyltransferase
On to B1, for which the binding result is recorded as “binds”.
